Reference: the supplement of paper PMC10567573
± gives the standard deviation.

Experiment: protein stability index of a GFP-peptide fusion (GPS, HEK-293T) (PSI 1-6); higher = more stable
[1] = treatment: DMSO, c terminus: a fixed tail appended
[2] = treatment: MLN4924 1 uM, 8 h, c terminus: a fixed tail appended
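Further: 24-mer peptide tiles fused after GFP, lentivirally expressed, FACS-sorted into six equal bins by GFP/DsRed ratio, decoded by Illumina sequencing, PSI is the read-weighted mean bin number.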

| Sequence | protein stability index [1] | protein stability index [2] | protein stability index (treatment: DMSO, c terminus: native) | protein stability index (treatment: MLN4924 1 uM, 8 h, c terminus: native) |
| --- | --- | --- | --- | --- |
| KEMEQLFSQYGRIITSRILVDQVT [ELAVL3] | 2.94 ± 0.24 | 3.41 ± 0.58 |  |  |
| EDENDLEELNNGEPQTEHQQESES [MIA2] | 5.57 ± 0.21 | 5.74 ± 0.12 |  |  |
| MRLNSTGEVPVLIHGENIICEATQ [GDAP1] | 3.69 ± 0.17 | 3.8 ± 0.45 |  |  |
| QKNFGLYVQEKRDGLKRRQQLEEE [RAD54B] | 4.7 ± 0.32 | 4.66 ± 0.2 |  |  |
| RHTSPVFSPANPESSMEDCLAHLG [BCL2L13] | 4.24 ± 0.069 | 4.31 ± 0.29 |  |  |
| KTHSSPALSQGHVTGSKTTKDATG [PSD2] | 5.37 ± 0.06 | 5.46 ± 0.17 |  |  |
| GRESYIPGICVARVYHGWLFEGLG [SLA] |  | 1.8 ± 0.88 |  |  |
| LKKYLEPRCPRMVLSLKEGAREED [FBXO3] | 4.56 ± 0.34 | 4.19 ± 0.41 |  |  |
| SLEHTLRVAIAHYQDDPDLRFLLD [TSPAN10] | 2.69 ± 0.16 | 2.98 ± 0.14 |  |  |
| LYFQWYIFYFVIQRKKWVDLAWMI [FADS1] | 2.25 ± 0.7 | 3.09 ± 0.93 |  |  |
| VLTKKFQVTMRGLLSCLSKSNNRL [FBXO39] | 3.16 ± 0.51 | 3.24 ± 1.2 |  |  |
| MLRSGLSGLGSCLPGSYLSSECHT [KRT36] | 2.42 ± 0.12 | 2.37 ± 0.092 |  |  |
| CSQGQQLATFSSDWEIQEDSRLMC [CCDC3] | 3.16 ± 0.073 | 3.03 ± 0.55 |  |  |
| NISCFFRLVDRDSVWGYDLGLRSL [MYORG] | 3.01 ± 0.41 | 2.95 ± 0.7 |  |  |
| VNSYYSSPAQQVPKNPALEAFLAQ [TOR1AIP2] | 3.45 ± 0.36 | 3.66 ± 0.25 |  |  |
| VAITILQDDHDHKVQELMSTHELE [MTUS2] | 3.3 ± 0.3 | 3.43 ± 0.23 |  |  |
| EAEAADSGAVGARRFLLCLYLVGF [MFSD9] | 2.79 ± 0.91 | 2.65 ± 0.71 |  |  |
| RRNLEEDDYLHKDTGETSMLKRPV [STEAP1] | 4.69 ± 0.13 | 4.76 ± 0.19 |  |  |
| SWEVVTSMGTQRCDAGVCVLREK [KLHL12] |  |  | 2.89 ± 0.46 | 3.17 ± 0.41 |
| TFFPVALKKHGPICQKTATKKRKT [ZC2HC1A] | 3.24 ± 0.3 | 3.32 ± 0.3 |  |  |
| GHPYRGASQFLASASSSTTCCEST [IRX6] | 4.24 ± 0.19 | 4.3 ± 0.22 |  |  |
| SRVAHIERTRKPYNNDIDYYAKRN [GALNT9] | 3.77 ± 0.37 | 3.91 ± 0.33 |  |  |
| GQPLRPLVPDASKQRLMENTEDWR [PDLIM7] | 4.54 ± 0.24 | 4.72 ± 0.18 |  |  |

| Sequence | protein stability index [1] | protein stability index [2] | protein stability index (treatment: DMSO, c terminus: native) | protein stability index (treatment: MLN4924 1 uM, 8 h, c terminus: native) |
| --- | --- | --- | --- | --- |
| NVEDHINPKLPNISLDVLQPSFPE [POMT2] | 4.58 ± 0.22 | 4.7 ± 0.15 |  |  |
| SLQQQHQADLELIESAHRSRIKVL [FBF1] | 3.53 ± 0.074 | 3.47 ± 0.31 |  |  |
| ASLGDVQSGATISMPCSTDKENGE [SASS6] | 5.69 ± 0.17 | 5.62 ± 0.23 |  |  |
| INGSEGDGAEIAEKFVFFIGSKNG [DYNC2LI1] | 2.99 ± 0.21 | 3.4 ± 0.26 |  |  |
| LEFFYGIATATEIAYYSYIYSVVD [SLC19A2] | 3.5 ± 0.48 | 3.27 ± 0.46 |  |  |
| ARLQEPVTFRDVAVDFTQEEWGQL [ZNF8] | 4.13 ± 0.2 | 4.07 ± 0.22 |  |  |
| ASHTVGFTPPTSLTRAGMSYYNSP [CCDC6] | 2.82 ± 0.44 | 3.18 ± 0.21 |  |  |
| HVDSIKFCGATIAGLSLLSPSVMR [ALKBH7] | 2.2 ± 0.81 | 2.19 ± 0.39 |  |  |
| LILASELSRLSVNSVTAGDYSRPL [TSN] | 2.45 ± 0.33 | 2.37 ± 0.19 |  |  |
| EIKDLILPKISDPNFVKDLEEDLY [PI4K2A] | 3.16 ± 0.5 | 3.12 ± 0.38 |  |  |
| NTNLHTHQRTHTGEKPFTCHECGK [ZNF75A] | 4.51 ± 0.14 | 4.54 ± 0.18 |  |  |
| SLPPPAGLNSSWVELPMNSSNGND [BNIP3L] | 4.94 ± 0.26 | 4.88 ± 0.29 |  |  |
| GRSFREEQCVSFNSHVYNGRTHQW [ADAMTSL2] | 3.05 ± 0.56 | 3.15 ± 0.87 |  |  |
| VTTYLHKDYNNLWIIKKHNTNSDP [POMT2] | 2.31 ± 0.48 | 2.5 ± 0.23 |  |  |
| PGNGTHGLSPEEKEQLSNDRETQE [ELOA2] | 5.73 ± 0.074 | 5.75 ± 0.16 |  |  |
| EALAKQVASEMRFVQDLVRALEQE [DAPK3] | 2.95 ± 0.25 | 3.09 ± 0.54 |  |  |
| LIIFDKQSSQRMRQNLKLLVEETS [CEP70] | 2.1 ± 0.25 | 2.04 ± 0.35 |  |  |
| STFRTPAVLFTGIVALYIASGLTG [ATL3] | 3.09 ± 0.38 | 3.19 ± 0.24 |  |  |
| MRHEELLTKTFQGPAVVCGTPTSH [LYSMD4] | 3.82 ± 0.19 | 3.82 ± 0.13 |  |  |
| REPYYARPEPELETFSPPLPAGPG [CPXM2] | 4.7 ± 0.26 | 4.47 ± 0.38 |  |  |
| AVYFAEAEEAESHFSSIPDAFWWA [KCNA1] | 2.27 ± 0.4 | 2.53 ± 0.42 |  |  |
| LWTTSRVLKVLSVCSSNKPAIVEA [CTNNB1] | 2.21 ± 0.3 | 2.08 ± 0.28 |  |  |
| FDNPQVRFFLGDLCSRQDLYPALK [NSDHL] | 2.35 ± 0.29 | 2.25 ± 0.26 |  |  |

| Sequence | protein stability index [1] | protein stability index [2] | protein stability index (treatment: DMSO, c terminus: native) | protein stability index (treatment: MLN4924 1 uM, 8 h, c terminus: native) |
| --- | --- | --- | --- | --- |
| VEALQLSARWLEVLRTYLELVLCV [FBXO33] | 2.58 ± 0.35 | 2.46 ± 0.73 |  |  |
| GVTEEQEGFADGFVKALDDLHKMN [JUNB] | 4.69 ± 0.17 | 4.47 ± 0.32 |  |  |
| TLNSIWNVEDHINPKLPNISLDVL [POMT2] | 2.31 ± 0.092 | 2.48 ± 0.17 |  |  |
| TLLPASLFVNSHPGIDRPGMLCSF [DCAF4] | 2.31 ± 0.36 | 2.2 ± 0.22 |  |  |
| STKAIPEKYGAVREVILKELAEAT [ZBED1] | 3.88 ± 0.32 | 4.08 ± 0.35 |  |  |
| SLSTSSSSSPPGTPSPADAKAPPT [CEBPB] | 5.42 ± 0.15 | 5.34 ± 0.19 |  |  |
| TCSECGKGFIQKGNLNIHQRTHTG [ZNF649] | 3.24 ± 0.2 | 3.26 ± 0.25 |  |  |
| DLLRNTHFRGVSLNLTRKLAQQLC [DYRK1B] | 2.35 ± 0.48 | 2.22 ± 0.3 |  |  |
| AAHLKLTSIEEGYERSFIHKIKHK [IQUB] | 3.18 ± 0.24 | 3.2 ± 0.2 |  |  |
| RDNAELENLIRERSQQQEPLLCPS [KRT33B] | 4.98 ± 0.23 | 4.87 ± 0.21 |  |  |
| WIDIKQFVWYTPPTFMIAVFLPIV [STEAP1] | 2.67 ± 0.36 | 3.39 ± 0.61 |  |  |
| MTVVRMDASVQPGPFRTLLQFLYT [RHOBTB1] | 2.41 ± 0.4 | 2.25 ± 0.4 |  |  |
| GRFEQLGKTAASWCLHVNNWLQVS [FSD1] | 2.29 ± 0.37 | 1.96 ± 0.2 |  |  |
| DDGTYSQVQCHSYTGYCWCVTPNG [SMOC2] | 2.48 ± 0.14 | 2.66 ± 0.47 |  |  |
| RYFIADLPHLQDSFVDKLLDLMPR [INTS4] | 2.16 ± 0.29 | 2.27 ± 0.29 |  |  |
| KNRPAMNYDKLSRSIRQYYKKGII [SPDEF] | 2.46 ± 0.3 | 2.42 ± 0.48 |  |  |
| IKGKSCRTITFEQFQEALEELAKK [TPPP] | 2.53 ± 0.26 | 2.62 ± 0.36 |  |  |
| ILILEGGYNLTSISESMAACTRSL [HDAC6] | 2.97 ± 0.61 | 2.63 ± 0.8 |  |  |
| NTTLTQYQLLATHVPTVWAIDQYR [RHOBTB1] | 2.75 ± 0.56 | 2.41 ± 0.43 |  |  |
| YRQVPGSDPARYEFLWGPRAHAEI [MAGEA10] | 2.73 ± 0.24 | 2.91 ± 0.26 |  |  |
| TDRSHIYTFTDTFTEKLWPLFYPG [TRIM39] | 2.16 ± 0.47 | 2.15 ± 0.56 |  |  |
| QIENLNIQVEDIRIRAILSTYRKR [LOXL2] | 2.67 ± 0.28 | 2.85 ± 0.37 |  |  |
| VVLLFETALLSSGFSLEDPQTHSN [HSP90AB1] |  | 2.83 ± 0.84 |  |  |

| Sequence | protein stability index [1] | protein stability index [2] | protein stability index (treatment: DMSO, c terminus: native) | protein stability index (treatment: MLN4924 1 uM, 8 h, c terminus: native) |
| --- | --- | --- | --- | --- |
| NKALSIILHLICLLEKVPCTLEQD [FEM1C] | 2.87 ± 0.25 | 3.13 ± 0.71 |  |  |
| LGRPDSLELQRQREARKRALARKQ [RSPH3] | 4.6 ± 0.17 | 4.43 ± 0.19 |  |  |
| LPAVKVFLDWLRTNPDLIIVCAQS [SMG5] | 2.27 ± 0.47 | 2.41 ± 0.45 |  |  |
| KYRNPSLKLMVNVCGHTLCESCVD [MNAT1] | 2.53 ± 0.34 | 2.83 ± 0.31 |  |  |
| NVLSVNLPDNFTLKEDGMETVPWF [TPH1] | 2.75 ± 0.21 | 2.92 ± 0.17 |  |  |
| LNVTNYCHLAHELRLSCMERKKVQ [DCAF4] | 2.61 ± 0.19 | 2.36 ± 0.21 |  |  |
| TFHEGKHNISHMSMDIARGLMVTC [WDFY1] | 2.49 ± 0.63 | 2.04 ± 0.14 |  |  |
| QERERVLTHFSRRYCQCNPDDSTS [PSD2] | 3.88 ± 0.14 | 3.93 ± 0.14 |  |  |
| SLLGLLSFPRNNISYLVLSMISMG [JAGN1] | 3.11 ± 0.33 | 3.01 ± 0.71 |  |  |
| ICEQAEYHMFQREKVEVQLPELFH [KCNAB2] | 3.17 ± 0.24 | 3.06 ± 0.29 |  |  |
| LGDCMRTLGYMPTEMELLEVSQHI [CABP4] | 2.46 ± 0.31 | 2.57 ± 0.23 |  |  |
| PSTLGRCKAFSTCVSHLIIVTVHY [OR10K2] | 3.07 ± 0.41 | 2.89 ± 0.5 |  |  |
| HAQVVEELSNFKSQKVLGLNEDPL [ZBED1] | 4.34 ± 0.28 | 4.44 ± 0.32 |  |  |
| GTADGRVVKLENGEIETIARFGSG [APMAP] | 4.66 ± 0.25 | 4.64 ± 0.1 |  |  |
| PFSEFFKLRFNRKKKGMYRKAITE [PWWP2B] | 2.35 ± 0.43 | 2.9 ± 0.27 |  |  |
| THFNTAQGFRTVLELVINYQQLCI [OAS1] | 3.26 ± 0.87 | 2.76 ± 0.37 |  |  |
| KVCLLGDTGVGKSSIVWRFVEDSF [RAB22A] | 2.28 ± 0.22 | 2.48 ± 0.68 |  |  |
| IVISPFRLEELTNRLASLQQENKV [CCDC6] | 2.12 ± 0.15 | 2.4 ± 0.25 |  |  |
| KQRPTKLKSLIRLVKHWYQNCKKK [OAS1] | 3.44 ± 0.45 | 3.08 ± 0.42 |  |  |
| WDSFSAWLHCVCVVGFDLELGQAV [DENND6A] | 3.04 ± 0.34 | 3.27 ± 0.68 |  |  |
